# No end group written: not given here. *: point of attachment. FITC = O=C1OC2(c3ccc(O)cc3Oc3cc(O)ccc32)c2ccc(NC(=S)*)cc21
# Assays:
# [1] = tested on: MC3T3-E1 cells; test: Real-time PCR of osteogenic marker mRNA levels (COL1A1, ALP, OC, VEGFA); assay type: cell-based, murine; conditions: FIG. 10; for COL1A1 mRNA levels: after 14 days; for OC level: time at which highest/max is reached: measured at 1, 3, 7 and 14 days
# Protocol: The cells assessed was murine pre-osteoblastic cell line (MC3T3-E1) obtained from the German Collection of Micro-organisms and Cell Cultures (DSMC, Braunschweig, Germany). MC3T3-E1 cells were routinely cultured at 37° C. in a humidified atmosphere of 5% CO2, and maintained in α-MEM supplemented with 10% foetal calf serum (FCS) and antibiotics (50 IU penicillin/ml and 50 μg streptomycin/ml). Cells were subcultured 1:4 before reaching confluence using PBS and trypsin/EDTA. All experiments were performed in the same passage of the MC3T3-E1 cells.
# Then, cells were maintained static at 37° C. in a humidified atmosphere of 5% CO2 for up to 14 days. The same number of cells were cultured in parallel in plastic in all the experiments.
# Total RNA was isolated with Tripure (Roche Diagnostics) and RNA was quantified using a spectrophotometer set at 260 nm. Real-time PCR was performed for two reference genes and several target gene (Table) The same amount of total RNA from each sample (370 ng) was reverse transcribed to cDNA at 37° C. for 60 min in a final volume of 20 μl, using High Capacity RNA to cDNA kit (Applied Biosystems). Each cDNA was diluted 1/7 and these dilutions are used to carry on the quantitative PCR.
# Real-time PCR was performed in the Lightcycler 480® (Roche Diagnostics, Germany) using SYBR green detection. For each reaction, 7 μl of Lightcycler-FastStart DNA MasterPLUS SYBR Green I, 0.5 μM of sense and antisense specific primer and 3 μl of the cDNA dilution in a final volume of 10 μl was added. The normal amplification program consisted of a preincubation step for denaturation of the template cDNA (95° C.), followed by 45 cycles consisting of a denaturation step (95° C.), an annealing step (60° C., for all expect for ALP and osterix, which were 65° C. and 68° C. respectively) and an extension step (72° C.). Real-time efficiencies were calculated from the given slopes in the LightCycler 480 software using serial dilutions.
# Relative quantification after PCRWas calculated by dividing the concentration of the target gene in each sample by the mean of the concentration of the two reference genes (Housekeeping genes) in the same sample using the advanced relative quantification method provided by the LightCycler 480 analysis software version 1.5 (Roche Diagnostics, Mannheim, Germany).
# [2] = Release profile of FITC-labelled PRP from SBP in 10 ml purified water; assay type: physicochemical; conditions: for period of highest release rate / release of peptide: 10 ml purified water; for release of peptide: FITC on C- or N-terminal
# Protocol: For 4 days the solution was analysed every 24 h using UV-vis, then 48 h after, and finally […] after. The water was changed every time to better simulate in vivo conditions, maximizing the drive force. Having a FITC+H2O calibration curve, the absorbance could be related to the concentration. Using a known quantity of water, the mass released could be derived from the measured concentration.
# For a proper FITC release profile, also samples of bone implant matrix, identified as “SB”, reproduced according to example 3 were studied, since other components of the “SB” is likely to be released, the blank used for the spectroscopy was based on a water+“SB” solution. […] To identify the presence of “PRP” in the aqueous solution, FITC molecules were either attached to the C- or N-terminal of the peptide before loading.
# Calibration was used to derive the concentration of FITC released in the water solution at the given time points. With a known quantity of water used at a given time, the mass released can be derived.
# Best fit plots where made using the inbuild best-fit function of Graph (Software) assuming both a logarithmic and power function. In general, the logarithmic functions were more accurate (R^2-values closer to 1).
Substance,COL1A1 mRNA levels [1],OC level: time at which highest/max is reached [1],period of highest release rate [2],"initial release ([2]; FIG. 2, comparison P2 vs P5)",release of peptide ([2]; after 14 days) [µg],"release rate ([2]; after 14 days, FIG. 2)"
"PHQ PMQ PQP PVH PMQ PLP PQP PLPP (PHQPMQPQPPVHPMQPLPPQPPLPP; proline rich peptide) [P6, artificial Proline-Rich Peptide]",raised significantly,7 days,,,,
"PLV PSQ PLV PSQ PLV PSQ PQP PLPP (PLVPSQPLVPSQPLVPSQPQPPLPP; proline rich peptide) [P2, artificial Proline-Rich Peptide]",,,highest release rate the two first days,higher initial release than P5,11.75 to 14.01,
"PLV PSS PLV PCC PLV PCC PSP PLPP (PLVPSSPLVPCCPLVPCCPSPPLPP; proline rich peptide) [P5, artificial Proline-Rich Peptide]",drop,fairly stable,highest release rate the two first days,,8.75 to 9.90,
P2N: PRP version P2 (SEQ ID 4) with FITC attached on the N terminal ({FITC}-PLVPSQPLVPSQPLVPSQPQPPLPP),,,,,,jump in release rate

# Source: patent US20220176020A1, “Improved Bone Implant Matrix Comprising Proline-Rich Peptide And Method Of Preparing The Same” (Industrie Biomediche Insubri S.A., priority 2019, published 2022)
